In patent US20260201064A1 (ISU ABXIS, published 2026):
Changes are numbered by the printed parent chain.

T1: recombinant human ASM protein (human, UniProt P17405 47-630)
T1 construct: Recombinant human ASM in solution; also called acid sphingomyelinase (ASM) protein
T1 sequence: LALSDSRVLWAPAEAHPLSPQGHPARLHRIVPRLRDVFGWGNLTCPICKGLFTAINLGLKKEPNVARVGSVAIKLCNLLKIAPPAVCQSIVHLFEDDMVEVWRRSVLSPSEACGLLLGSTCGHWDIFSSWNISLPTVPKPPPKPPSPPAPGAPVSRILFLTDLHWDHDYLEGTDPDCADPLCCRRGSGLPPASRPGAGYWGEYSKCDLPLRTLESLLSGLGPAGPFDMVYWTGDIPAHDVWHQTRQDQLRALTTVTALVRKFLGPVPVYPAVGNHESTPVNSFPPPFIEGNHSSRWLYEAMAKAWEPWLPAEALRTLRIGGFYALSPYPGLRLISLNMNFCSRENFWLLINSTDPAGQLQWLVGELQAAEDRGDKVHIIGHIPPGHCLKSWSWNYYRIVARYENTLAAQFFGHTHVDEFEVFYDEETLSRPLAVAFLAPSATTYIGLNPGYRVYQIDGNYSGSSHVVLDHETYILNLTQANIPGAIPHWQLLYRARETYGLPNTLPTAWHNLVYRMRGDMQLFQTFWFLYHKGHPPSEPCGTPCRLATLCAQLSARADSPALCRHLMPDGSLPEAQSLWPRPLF

B1: #9104v-L11 (antibody, human IgG4 S228P, lambda, V domains shown)
VH: EVQLLESGGGLVQPGGSLRLSCAASGFTFSNYYMSWVRQAPGKGLEWVSGIYYGSGNIYYADSVKGRFTISRDNSKNTLYLQMNSLRAEDTAVYYCARDTPGFDYWGQGTLVTVSS
VL: QSVLTQPPSASGTPGQRVTISCTGSSSNIGNNAVNWYQQLPGTAPKLLIYYDIFQPSGVPDRFSGSKSGTSASLAISGLRSEDEADYYCGAWDYSLSAYVFGGGTKLTVLG
notes: Full-length IgG, lambda
B2: #9104v-L23 (antibody, human IgG4 S228P, lambda, V domains shown)
VH: B1 VH
VL: B1 VL with I53Q, Q55R
notes: Full-length IgG, lambda
B3: #9104v-L21 (antibody, human IgG4 S228P, lambda, V domains shown)
VH: B1 VH
VL: B1 VL with I53M, Q55R, S57N
notes: Full-length IgG, lambda
B4: #9104v-L25 (antibody, human IgG4 S228P, lambda, V domains shown)
VH: B1 VH
VL: B1 VL with I53S, Q55P, P56A
notes: Full-length IgG, lambda
B5: #9104v-L20 (antibody, human IgG4 S228P, lambda, V domains shown)
VH: B1 VH
VL: B1 VL with I53M, Q55R, S57G
notes: Full-length IgG, lambda
B6: #9104v-L19 (antibody, human IgG4 S228P, lambda, V domains shown)
VH: B1 VH
VL: B1 VL with I53L, Q55R
notes: Full-length IgG, lambda
B7: #9104v-L12 (antibody, human IgG4 S228P, lambda, V domains shown)
VH: B1 VH
VL: B1 VL with Q55R, S57D
notes: Full-length IgG, lambda
B8: #9104v-L15 (antibody, human IgG4 S228P, lambda, V domains shown)
VH: B1 VH
VL: B1 VL with F54H, Q55R, S57Y
notes: Full-length IgG, lambda
B9: #9104a-B8 (antibody, human IgG4 S228P, lambda, V domains shown)
VH: B1 VH with I51V, G54P, I58P
VL: B1 VL with I53M, Q55R, S57N
notes: VH of #9104v-H33 with VL of #9104v-L21; full-length IgG, lambda
B10: #9104a-C7 (antibody, human IgG4 S228P, lambda, V domains shown)
VH: B1 VH with I51V, N57T, I58P
VL: B1 VL with I53Q, Q55R
notes: VH of #9104v-H31 with VL of #9104v-L23; full-length IgG, lambda
B11: #9104a-C4 (antibody, human IgG4 S228P, lambda, V domains shown)
VH: B1 VH with Q39R, N57T, I58P, D62A
VL: B1 VL with I53Q, Q55R
notes: VH of #9104v-H17 with VL of #9104v-L23; full-length IgG, lambda
B12: #9104a-E7 (antibody, human IgG4 S228P, lambda, V domains shown)
VH: B1 VH with I51V, N57T, I58P
VL: B1 VL with I53Y, F54Y, P56S
notes: VH of #9104v-H31 with VL of #9104v-L65; full-length IgG, lambda
B13: #9104a-E2 (antibody, human IgG4 S228P, lambda, V domains shown)
VH: B1 VH with N57I, I58P, G66E
VL: B1 VL with I53Y, F54Y, P56S
notes: VH of #9104v-H11 with VL of #9104v-L65; full-length IgG, lambda
B14: #9104a-E4 (antibody, human IgG4 S228P, lambda, V domains shown)
VH: B1 VH with Q39R, N57T, I58P, D62A
VL: B1 VL with I53Y, F54Y, P56S
notes: VH of #9104v-H17 with VL of #9104v-L65; full-length IgG, lambda
B15: #9104a-D1 (antibody, human IgG4 S228P, lambda, V domains shown)
VH: B1 VH with S55N, N57I, I58P, G66D
VL: B1 VL with I53Y, Q55S, P56H
notes: VH of #9104v-H10 with VL of #9104v-L64; full-length IgG, lambda
B16: #9104a-D4 (antibody, human IgG4 S228P, lambda, V domains shown)
VH: B1 VH with Q39R, N57T, I58P, D62A
VL: B1 VL with I53Y, Q55S, P56H
notes: VH of #9104v-H17 with VL of #9104v-L64; full-length IgG, lambda
B17: #9104a-C3 (antibody, human IgG4 S228P, lambda, V domains shown)
VH: B1 VH with N57I, I58P, D62N
VL: B1 VL with I53Q, Q55R
notes: VH of #9104v-H13 with VL of #9104v-L23; full-length IgG, lambda
B18: #9104a-E5 (antibody, human IgG4 S228P, lambda, V domains shown)
VH: B1 VH with N57V, I58P
VL: B1 VL with I53Y, F54Y, P56S
notes: VH of #9104v-H19 with VL of #9104v-L65; full-length IgG, lambda
B19: #9104a-E3 (antibody, human IgG4 S228P, lambda, V domains shown)
VH: B1 VH with N57I, I58P, D62N
VL: B1 VL with I53Y, F54Y, P56S
notes: VH of #9104v-H13 with VL of #9104v-L65; full-length IgG, lambda
B20: #9104a-C1 (antibody, human IgG4 S228P, lambda, V domains shown)
VH: B1 VH with S55N, N57I, I58P, G66D
VL: B1 VL with I53Q, Q55R
notes: VH of #9104v-H10 with VL of #9104v-L23; full-length IgG, lambda
B21: #9104a-E6 (antibody, human IgG4 S228P, lambda, V domains shown)
VH: B1 VH with I51T, G54D, N57Y, I58V
VL: B1 VL with I53Y, F54Y, P56S
notes: VH of #9104v-H27 with VL of #9104v-L65; full-length IgG, lambda
B22: #9104a-C2 (antibody, human IgG4 S228P, lambda, V domains shown)
VH: B1 VH with N57I, I58P, G66E
VL: B1 VL with I53Q, Q55R
notes: VH of #9104v-H11 with VL of #9104v-L23; full-length IgG, lambda
B23: #9104a-D2 (antibody, human IgG4 S228P, lambda, V domains shown)
VH: B1 VH with N57I, I58P, G66E
VL: B1 VL with I53Y, Q55S, P56H
notes: VH of #9104v-H11 with VL of #9104v-L64; full-length IgG, lambda
B24: #9104a-C6 (antibody, human IgG4 S228P, lambda, V domains shown)
VH: B1 VH with I51T, G54D, N57Y, I58V
VL: B1 VL with I53Q, Q55R
notes: VH of #9104v-H27 with VL of #9104v-L23; full-length IgG, lambda
B25: #9104a-D7 (antibody, human IgG4 S228P, lambda, V domains shown)
VH: B1 VH with I51V, N57T, I58P
VL: B1 VL with I53Y, Q55S, P56H
notes: VH of #9104v-H31 with VL of #9104v-L64; full-length IgG, lambda
B26: #9104a-D3 (antibody, human IgG4 S228P, lambda, V domains shown)
VH: B1 VH with N57I, I58P, D62N
VL: B1 VL with I53Y, Q55S, P56H
notes: VH of #9104v-H13 with VL of #9104v-L64; full-length IgG, lambda
B27: #9104a-D5 (antibody, human IgG4 S228P, lambda, V domains shown)
VH: B1 VH with N57V, I58P
VL: B1 VL with I53Y, Q55S, P56H
notes: VH of #9104v-H19 with VL of #9104v-L64; full-length IgG, lambda
B28: #9104a-D6 (antibody, human IgG4 S228P, lambda, V domains shown)
VH: B1 VH with I51T, G54D, N57Y, I58V
VL: B1 VL with I53Y, Q55S, P56H
notes: VH of #9104v-H27 with VL of #9104v-L64; full-length IgG, lambda
B29: #9104a-C5 (antibody, human IgG4 S228P, lambda, V domains shown)
VH: B1 VH with N57V, I58P
VL: B1 VL with I53Q, Q55R
notes: VH of #9104v-H19 with VL of #9104v-L23; full-length IgG, lambda
B30: #9104a-E1 (antibody, human IgG4 S228P, lambda, V domains shown)
VH: B1 VH with S55N, N57I, I58P, G66D
VL: B1 VL with I53Y, F54Y, P56S
notes: VH of #9104v-H10 with VL of #9104v-L65; full-length IgG, lambda
B31: #9104a-D8 (antibody, human IgG4 S228P, lambda, V domains shown)
VH: B1 VH with I51V, G54P, I58P
VL: B1 VL with I53Y, Q55S, P56H
notes: VH of #9104v-H33 with VL of #9104v-L64; full-length IgG, lambda
B32: #9104a-E8 (antibody, human IgG4 S228P, lambda, V domains shown)
VH: B1 VH with I51V, G54P, I58P
VL: B1 VL with I53Y, F54Y, P56S
notes: VH of #9104v-H33 with VL of #9104v-L65; full-length IgG, lambda

target: T1, recombinant human ASM protein; experiment: BLI (Octet), antibody on AHC sensor
Protocol: (§1) The binding affinity, to the ASM protein, of the produced antibodies specifically binding to the ASM protein and the interactive dynamics therebetween were measured using an Octet® QK384 system (Pall Life Sciences).
(§2) First, an antibody specifically binding to the ASM protein produced in Example 1 was captured using an anti-human IgG Fc capture (AHC) biosensor, and 1.25, 2.5, 5, 10, or 20 nM recombinant human ASM protein solution was added thereto. […] The association constant (Kₐ), dissociation constant (Kd), and equilibrium dissociation constant (KD) for each antibody were determined using Octet® analysis software (Pall Life® Sciences). As a result, the binding affinities, to the human ASM protein, of the antibodies with mutations in the heavy chain CDR regions of the antibody #9104 as depicted in Table 1 are shown in Table 5, and the binding affinities, to the human ASM protein, of the antibodies with mutations of the light chain CDR regions in the antibody #9104 as depicted in Table 2 are shown in Table 6.

Kd	koff	kon	Binder
0.768 nM	0.000199 s⁻¹	259000 M⁻¹ s⁻¹	B1
0.817 nM	0.000185 s⁻¹	226000 M⁻¹ s⁻¹	B2
0.556 nM	0.000135 s⁻¹	243000 M⁻¹ s⁻¹	B3
0.882 nM	0.000259 s⁻¹	294000 M⁻¹ s⁻¹	B4
0.658 nM	0.000162 s⁻¹	247000 M⁻¹ s⁻¹	B5
1.03 nM	0.000238 s⁻¹	231000 M⁻¹ s⁻¹	B6
0.718 nM	0.000159 s⁻¹	221000 M⁻¹ s⁻¹	B7
0.992 nM	0.000273 s⁻¹	275000 M⁻¹ s⁻¹	B8

target: T1, recombinant human ASM protein; experiment: BLI (Octet), antibody on AHC sensor; remark: another data set of the same source
Protocol: as §1, §2
After the small-scale expression in the ExpiCHO cell line as described above, the binding affinity to the human ASM protein was investigated as described in Experimental Example 1. Specifically, the antibody produced by a combination of #9104v-H33 heavy chain variable region and #9104v-L23 light chain variable region was not expressed and thus excluded in the analysis of binding affinity to ASM protein.

Kd	koff	kon	Binder
0.28 nM	6.44e-05 s⁻¹	230000 M⁻¹ s⁻¹	B9
0.152 nM	4.56e-05 s⁻¹	300000 M⁻¹ s⁻¹	B10
0.203 nM	6.42e-05 s⁻¹	317000 M⁻¹ s⁻¹	B11
0.211 nM	4.59e-05 s⁻¹	218000 M⁻¹ s⁻¹	B12
0.212 nM	4.27e-05 s⁻¹	202000 M⁻¹ s⁻¹	B13
0.197 nM	4.15e-05 s⁻¹	210000 M⁻¹ s⁻¹	B14
0.0948 nM	2.79e-05 s⁻¹	294000 M⁻¹ s⁻¹	B15
0.206 nM	5.09e-05 s⁻¹	248000 M⁻¹ s⁻¹	B16
0.176 nM	4.55e-05 s⁻¹	259000 M⁻¹ s⁻¹	B17
0.273 nM	6.36e-05 s⁻¹	234000 M⁻¹ s⁻¹	B18
0.28 nM	5.74e-05 s⁻¹	205000 M⁻¹ s⁻¹	B19
0.139 nM	3.76e-05 s⁻¹	271000 M⁻¹ s⁻¹	B20
1.19 nM	7.77e-05 s⁻¹	65500 M⁻¹ s⁻¹	B21
0.172 nM	5.28e-05 s⁻¹	306000 M⁻¹ s⁻¹	B22
0.149 nM	5.22e-05 s⁻¹	351000 M⁻¹ s⁻¹	B23
0.928 nM	0.000109 s⁻¹	117000 M⁻¹ s⁻¹	B24
0.198 nM	5.69e-05 s⁻¹	288000 M⁻¹ s⁻¹	B25
0.229 nM	6.73e-05 s⁻¹	294000 M⁻¹ s⁻¹	B26
0.13 nM	3.39e-05 s⁻¹	261000 M⁻¹ s⁻¹	B27
1.07 nM	8.7e-05 s⁻¹	81200 M⁻¹ s⁻¹	B28
0.192 nM	6.46e-05 s⁻¹	337000 M⁻¹ s⁻¹	B29
0.289 nM	6.21e-05 s⁻¹	215000 M⁻¹ s⁻¹	B30
0.177 nM	3.33e-05 s⁻¹	188000 M⁻¹ s⁻¹	B31
0.38 nM	5.66e-05 s⁻¹	149000 M⁻¹ s⁻¹	B32
